Reference: PMC8041466

Columns and labels:
[1] = target: Cytotect (HCMV-IgG hyperimmunoglobulin preparation, human plasma pool, polyclonal IgG) (human); test: flow cytometry on cells; same set-up; pairs of the vFcγR on infected cells with Cytotect IgG
[2] = target: Rituximab (humanized anti-hCD20 IgG1) (human); test: flow cytometry on cells; same set-up; pairs of the CD4-tailed vFcγR on the cells with Rtx
Rituximab (humanized anti-hCD20 IgG1) (human), sequence (heavy, as listed by the source, chain 1 of 2): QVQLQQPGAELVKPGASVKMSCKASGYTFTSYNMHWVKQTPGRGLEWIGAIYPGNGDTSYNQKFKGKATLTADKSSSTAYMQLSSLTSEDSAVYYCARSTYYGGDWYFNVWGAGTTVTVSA
Rituximab (humanized anti-hCD20 IgG1) (human), sequence (light, as listed by the source, chain 2 of 2): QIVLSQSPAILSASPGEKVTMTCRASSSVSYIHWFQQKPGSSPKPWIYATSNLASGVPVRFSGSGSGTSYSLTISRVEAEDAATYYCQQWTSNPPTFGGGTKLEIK

| Substance | percent reduction of FcγRIII binding [1] [%] | percent reduction of FcγRIII binding [2] [%] |
| --- | --- | --- |
| gp68 natively expressed on HCMV AD169/pBAC2 mutant-infected MRC-5 cells (from UniProt P16739 24-345) (natural protein) | 60 | – |
| gp68-CD4 (gp68 with the transmembrane and cytosolic domains of human CD4) | – | 60 |
